Test results taken from US20100285597.

Columns and labels:
[1] = target: T1, T310A point mutant of nectin-1
T1 chain: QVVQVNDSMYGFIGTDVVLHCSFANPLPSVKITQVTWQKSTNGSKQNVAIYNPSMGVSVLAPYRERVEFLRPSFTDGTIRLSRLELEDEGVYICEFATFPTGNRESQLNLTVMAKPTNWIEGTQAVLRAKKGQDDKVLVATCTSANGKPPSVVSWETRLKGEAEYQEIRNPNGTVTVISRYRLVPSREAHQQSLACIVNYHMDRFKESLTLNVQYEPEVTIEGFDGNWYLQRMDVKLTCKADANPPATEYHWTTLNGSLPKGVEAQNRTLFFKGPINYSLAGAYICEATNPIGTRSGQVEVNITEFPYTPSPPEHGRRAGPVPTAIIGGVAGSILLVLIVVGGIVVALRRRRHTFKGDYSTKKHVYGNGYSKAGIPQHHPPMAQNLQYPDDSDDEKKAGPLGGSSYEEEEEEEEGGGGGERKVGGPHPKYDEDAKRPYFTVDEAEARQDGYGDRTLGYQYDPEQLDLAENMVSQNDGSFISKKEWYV

[2] = target: T2, S323A point mutant of nectin-1
T2 chain: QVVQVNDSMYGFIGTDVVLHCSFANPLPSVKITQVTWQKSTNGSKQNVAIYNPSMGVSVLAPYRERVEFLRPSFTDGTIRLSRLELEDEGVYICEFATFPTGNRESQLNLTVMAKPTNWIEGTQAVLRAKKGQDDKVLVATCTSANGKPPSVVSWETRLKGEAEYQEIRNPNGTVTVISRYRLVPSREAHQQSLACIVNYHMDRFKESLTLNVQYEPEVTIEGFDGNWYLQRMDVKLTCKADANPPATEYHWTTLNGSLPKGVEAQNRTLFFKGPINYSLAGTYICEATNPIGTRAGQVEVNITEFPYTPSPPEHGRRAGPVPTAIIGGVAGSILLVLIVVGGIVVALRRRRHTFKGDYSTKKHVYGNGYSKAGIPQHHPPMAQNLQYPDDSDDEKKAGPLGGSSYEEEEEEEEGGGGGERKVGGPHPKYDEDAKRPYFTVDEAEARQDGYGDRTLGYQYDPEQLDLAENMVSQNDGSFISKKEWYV

[3] = target: T3, Y311A point mutant of nectin-1
T3 chain: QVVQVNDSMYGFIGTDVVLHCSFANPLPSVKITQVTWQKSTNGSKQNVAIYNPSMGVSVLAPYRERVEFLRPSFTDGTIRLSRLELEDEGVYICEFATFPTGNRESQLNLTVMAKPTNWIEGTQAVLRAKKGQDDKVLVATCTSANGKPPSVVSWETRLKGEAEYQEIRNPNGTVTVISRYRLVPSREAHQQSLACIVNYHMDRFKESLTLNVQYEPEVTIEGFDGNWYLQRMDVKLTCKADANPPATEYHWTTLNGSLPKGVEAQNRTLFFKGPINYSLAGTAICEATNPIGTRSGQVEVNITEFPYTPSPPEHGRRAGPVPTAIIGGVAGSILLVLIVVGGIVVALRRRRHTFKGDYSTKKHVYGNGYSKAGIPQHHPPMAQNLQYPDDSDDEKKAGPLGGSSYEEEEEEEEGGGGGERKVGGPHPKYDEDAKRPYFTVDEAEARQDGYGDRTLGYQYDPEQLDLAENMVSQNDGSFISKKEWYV

B1: BACE1 (protein)
chain: ETDEEPEEPGRRGSFVEMVDNLRGKSGQGYYVEMTVGSPPQTLNILVDTGSSNFAVGAAPHPFLHRYYQRQLSSTYRDLRKGVYVPYTQGKWEGELGTDLVSIPHGPNVTVRANIAAITESDKFFINGSNWEGILGLAYAEIARPDDSLEPFFDSLVKQTHVPNLFSLQLCGAGFPLNQSEVLASVGGSMIIGGIDHSLYTGSLWYTPIRREWYYEVIIVRVEINGQDLKMDCKEYNYDKSIVDSGTTNLRLPKKVFEAAVKSIKAASSTEKFPDGFWLGEQLVCWQAGTTPWNIFPVISLYLMGEVTNQSFRITILPQQYLRPVEDVATSQDDCYKFAISQSSTGTVMGAVIMEGFYVVFDRARKRIGFAVSACHVHDEFRTAAVEGPFVTLDMEDCGYNIPQTDESTLMTIAYVMAAICALFMLPLCLMVCQWRCLRCLRQQHDDFADDISLLK
In the case of B1, the “production of CTF bands (Western blot of HEK 293 lysates)” value (from here on “production of CTF bands”) [1] is reported as “somewhat less effectively increased production in the other two mutants, T310A and Y311A”, the “production of CTF bands” value [2] is reported as “Co-expression with BACE1 substantially increased production of CTF bands for the nectin-1 polypeptide mutant S323A” and the “production of CTF bands” value [3] is reported as “somewhat less effectively increased production in the other two mutants, T310A and Y311A”.
